# Columns and labels:
# [1] = test system: P. aeruginosa strain WC-453; experiment: Time-kill assay in HEPES or CAA with 25% human serum (Tables 7, 8); assay type: cell-based, Pseudomonas aeruginosa; settings: lysin 10 μg/ml, WC-453; for HEPES (Log10 CFU/mL), 1 hr / HEPES (Log10 CFU/mL), 3 hr: 25 mM HEPES pH 7.4
# Method: Exponential phase bacteria were then pelleted and resuspended in 1/5 culture volume of 25 mM HEPES, pH 7.4 before a final adjustment to an optical density corresponding to a McFarland value of 0.5. […] All treatments were incubated at 37° C. with aeration. At time points before the addition of lysin (or buffer control) and at 1 hour and 3 hours intervals thereafter, culture samples were removed for quantitative plating on CAA agar plates.
# [2] = Isoelectric point (pI) of the polypeptides; assay type: physicochemical
# Text: By comparing the sequences and components of the various polypeptides, the effect of a particular structural modification on isoelectric point (a higher pI favors outer membrane penetration) and activity (as assessed by MIC) can be determined.
# [3] = test system: carbepenam-resistant clinical isolate WC-453; experiment: MIC in CAA without or with 25% human serum (Table 5); assay type: cell-based, Pseudomonas aeruginosa; settings: for CAA/HuS MIC: CAA supplemented with 25% human serum
# Method: MIC values were determined using a modification of the standard broth microdilution reference method defined by the Clinical and Laboratory Standards Institute (CLSI), CLSI. […] Methods for Dilution Antimicrobial Susceptibility Tests for Bacteria That Grow Aerobically; Approved Standard-10th Edition. Clinical and Laboratory Standards Institute, Wayne, Pa.
Molecule,"HEPES (Log10 CFU/mL), 1 hr ([1]; 1 hr) [Log10 CFU/mL]","HEPES (Log10 CFU/mL), 3 hr ([1]; 3 hr) [Log10 CFU/mL]","CAA/HuS (Log10 CFU/mL), 1 hr ([1]; CAA + 25% human serum, 1 hr) [Log10 CFU/mL]","CAA/HuS (Log10 CFU/mL), 3 hr ([1]; CAA + 25% human serum, 3 hr) [Log10 CFU/mL]",pI (isoelectric point) [2],activity in CAA supplemented with human serum (25%) [3],CAA MIC [3],CAA/HuS MIC [3]
"GN7: lysin obtained from a marine metagenome (SEQ ID NO: 206) (protein, GOS_4958713 hypothetical protein GOS_4958713, partial [marine metagenome]) MTPFDHALELTLGLEGGYSNHLMDRGGETMCGITEAVARRHGWEGEMRDLPIEMVRHIYKVDYWDPLMGDYLGEHNPELAEELFDTAVNCGVGFASKILQKSINVLNRNRTEDIAEDGQIGPQTLKALRDLARRDYDYLLECCKILQGNHYISLAHRDPTQRIFIRGWLTRV",7.5,6.2,7.0,7.0,5.6,active,>128,128
"GN11: lysin obtained from Pseudomonas putida KT2440 (SEQ ID NO: 208) (protein, listed as Pseudomonas putida) MTYNAGTKPRAETDYLVVHCSATRPSQDIGAADINRWHRAKGWRCIGYHFVIRRNGVVEEGRELDQIGAHVEGHNINSVGICMAGGVTEADINVPENNFTPEQFASLKHLLGELKEKYPSATIQGHRDFPKVAKACPSFDVKPWVAANL",6.7,<3.7,–,–,7.3,active,32,128
